# Data reported in the supplement of paper PMC10126150.
# ± gives the standard deviation of the averaged measurements.
# Test system: ATP
# Assay: switch fluorescence ratio, 500 uM ATP over buffer (Cy3 cluster intensity, sum of 5 cycles each) (fold (ratio)); higher = stronger signal-on switching upon ATP binding; sequences stand for … in TCGTCGGCAGCGTCAGATGTGTATAAGAGACAGTTTTTTTTTTTTTTTTTTTTTTTTT…TC
# Settings: aptamer strand: ATP DNA aptamer (quencher-CACCTGGGGGAGTATTGCGGAGGAAGG + anchor), 100 nM annealed; ATP concentration: 500 uM
# In short: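 Exposure to 500 uM ATP lasted 15 min at 22 °C before imaging, and a selection-buffer image was taken beforehand, for Cy3-labelled switching-strand clusters on a modified Illumina MiSeq flow-cell annealed to 100 nM quencher-labelled ATP aptamer. Five buffer/ATP cycles were run with NaOH stripping and re-annealing between them. The fluorescence ratio per cluster is summed target-cycle over summed buffer-cycle Cy3 intensity, averaged per switch-domain sequence. Clusters outside 100-1000 RFU were excluded.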
row,Sequence,switch fluorescence ratio
1,CCAACATGGG,1.03 ± 0.02
2,CCAACGGCCA,1.2 ± 0.049
3,CCAACGGGGG,1.061 ± 0.0019
4,CCAAGCAGGG,1.66 ± 0.059
5,CCAAGGGAAA,0.9822 ± 0.0032
6,CCAAGGGGGA,1.09 ± 0.1
7,CCAAGGTTCG,0.945 ± 0.053
8,CCAAGTAATT,1.2 ± 0.019
9,CCAAGTAGGC,1.13 ± 0.022
10,CCAAGTGAC,1.26 ± 0.028
11,CCAAGTGCGG,1.01 ± 0.029
12,CCAAGTTGCC,0.9929 ± 0.0092
13,CCAATATTTA,0.994 ± 0.03
14,CCAATCAGGT,1.08 ± 0.097
15,CCAATGGTGA,1.16 ± 0.068
16,CCAATTAATC,1.03 ± 0.032
17,CCAATTTTTA,1.01 ± 0.03
18,CCACCTATCT,1.09 ± 0.052
19,CCACGAATT,1.012 ± 0.0096
20,CCACGGCAGG,1.229 ± 0.011
21,CCACGGGATT,1.08 ± 0.035
22,CCACTAATGG,1.03 ± 0.013
23,CCACTATTAG,1.03 ± 0.021
24,CCACTCCGGG,1.192 ± 0.0055
25,CCACTCTGGG,0.9984 ± 0.0068
26,CCACTGATCG,1.02 ± 0.022

row,Sequence,switch fluorescence ratio
1,CCACTGGGCA,1.02 ± 0.042
2,CCACTGGGTA,1.054 ± 0.0042
3,CCACTGTTGG,0.992 ± 0.029
4,CCAGA,1.022 ± 0.006
5,CCAGAAAAGG,1.31 ± 0.47
6,CCAGAAAGGA,0.97 ± 0.029
7,CCAGAAAGTG,1.26 ± 0.38
8,CCAGAAGTGA,1.08 ± 0.018
9,CCAGAGGGTG,1.45 ± 0.52
10,CCAGAGGTAA,1.04 ± 0.027
11,CCAGCACTTT,1.008 ± 0.002
12,CCAGCATGGG,1.02 ± 0.015
13,CCAGCGGCCA,1.02 ± 0.025
14,CCAGGAACGA,0.986 ± 0.028
15,CCAGGATTGG,1 ± 0.006
16,CCAGGCTGAG,1.05 ± 0.022
17,CCAGGGGCGA,1.75 ± 0.9
18,CCAGGGGGAC,1.11 ± 0.018
19,CCAGGGGGGA,1.18 ± 0.048
20,CCAGGGGGGT,1.99 ± 1.4
21,CCAGGGGGTG,1.53 ± 0.32
22,CCAGGTATAA,1.06 ± 0.041
23,CCAGGTGGGA,3.53 ± 1.5
24,CCAGTACCTT,1.09 ± 0.03
25,CCAGTAGTTT,1 ± 0.013
26,CCAGTGAGGG,0.99 ± 0.026

row,Sequence,switch fluorescence ratio
1,CCAGTGTTCT,1.01 ± 0.024
2,CCAGTTGGCA,1 ± 0.031
3,CCATAAGGGA,1.028 ± 0.0055
4,CCATAGAGAA,1.02 ± 0.043
5,CCATAGAGAT,1.025 ± 0.0025
6,CCATAGGATA,1.0259 ± 0.00058
7,CCATAGTTGC,1.57 ± 0.086
8,CCATATTGTG,1.02 ± 0.016
9,CCATATTTTT,0.985 ± 0.015
10,CCATCATTCA,1 ± 0.028
11,CCATGGCGGT,1.05 ± 0.033
12,CCATGGGTGC,1.34 ± 0.024
13,CCATGGGTGG,1.01 ± 0.011
14,CCATGTCGTA,0.995 ± 0.016
15,CCATGTCTGT,0.963 ± 0.015
16,CCATGTGACT,1.034 ± 0.0057
17,CCATTAGTAT,1.057 ± 0.0076
18,CCATTGGGTA,1.01 ± 0.036
19,CCATTGTCCC,1.05 ± 0.029
20,CCATTTATTT,1.02 ± 0.019
21,CCATTTCTTT,1.01 ± 0.067
22,CCATTTGAGG,0.987 ± 0.059
23,CCATTTTGCC,0.9878 ± 0.00023
24,CCATTTTGCG,1 ± 0.011
25,CCATTTTTGC,1 ± 0.022
26,CCCAAACCTG,1.13 ± 0.068

row,Sequence,switch fluorescence ratio
1,CCCAGGAGTT,1.94 ± 0.16
2,CCCAGTAGCG,1.03 ± 0.017
3,CCCAGTTTTT,1.006 ± 0.0054
4,CCCATCCCCG,1.2 ± 0.084
5,CCCATGATGG,1.01 ± 0.046
6,CCCATGTTAA,0.993 ± 0.018
7,CCCATTTGCT,1.02 ± 0.03
8,CCCCAGTCAA,3.3 ± 0.43
9,CCCCCACTGG,1.1 ± 0.15
10,CCCCGGGGTT,1.88 ± 1.2
11,CCCCGGGTAA,1.33 ± 0.012
12,CCCCTTTATT,1.01 ± 0.057
13,CCCGAATATT,1.06 ± 0.029
14,CCCGGAGTGT,1.732 ± 0.0079
15,CCCGGCCCAG,1.05 ± 0.064
16,CCCGGGAGTG,1.02 ± 0.028
17,CCCGGGGGCA,1.21 ± 0.25
18,CCCGGGTAAG,1.03 ± 0.024
19,CCCGGGTAGT,1.12 ± 0.12
20,CCCGGGTCTG,1.04 ± 0.035
21,CCCGGGTTAT,0.9942 ± 0.0075
22,CCCGGTATTG,1.017 ± 0.007
23,CCCGGTCGGC,0.983 ± 0.0038
24,CCCTAGGCTT,1.13 ± 0.018
25,CCCTCGCGGT,1.78 ± 0.027
26,CCCTGAATTG,0.984 ± 0.053

row,Sequence,switch fluorescence ratio
1,CCCTGAGGAT,1.01 ± 0.031
2,CCCTTGGTTA,1.03 ± 0.032
3,CCCTTGTACG,1.03 ± 0.036
4,CCGAAACTTG,1.07 ± 0.038
5,CCGAACGTTT,2.31 ± 0.47
6,CCGAAGGGTA,1.1 ± 0.022
7,CCGAATACCA,1.61 ± 0.13
8,CCGAGAAGAG,1.58 ± 0.021
9,CCGAGCGCTT,4.69 ± 1.4
10,CCGAGTATGT,1.19 ± 0.034
11,CCGAGTTGTG,1.05 ± 0.041
12,CCGATGAGCT,1.42 ± 0.035
13,CCGATTTTTA,0.977 ± 0.053
14,CCGCAGGGTA,1.259 ± 0.0092
15,CCGCATGGGG,1.49 ± 0.057
16,CCGCATTGGG,3.35 ± 0.93
17,CCGCCGAGGT,1.68 ± 0.034
18,CCGCGACAAG,2.18 ± 0.086
19,CCGCTAGTGG,1.196 ± 0.0036
20,CCGCTCGAAT,3.36 ± 0.38
21,CCGCTCGGGG,1.05 ± 0.053
22,CCGCTGGATA,1.51 ± 0.18
23,CCGCTGTTTT,1.16 ± 0.23
24,CCGCTTTTTT,1.28 ± 0.23
25,CCGGAACATG,1.23 ± 0.058
26,CCGGACGGAG,1.04 ± 0.026

row,Sequence,switch fluorescence ratio
1,CCGGAGGGGT,1.38 ± 0.018
2,CCGGATATGG,1.135 ± 0.0024
3,CCGGCACCTG,1.02 ± 0.025
4,CCGGCATCGG,1.02 ± 0.059
5,CCGGCGGAAG,1.003 ± 0.0011
6,CCGGCGTGGC,1.36 ± 0.082
7,CCGGCTAGTG,1.03 ± 0.034
8,CCGGCTGAGG,1.03 ± 0.017
9,CCGGCTTTCC,1.15 ± 0.027
10,CCGGGATCTT,1.05 ± 0.013
11,CCGGGCCAGG,1.255 ± 0.0081
12,CCGGGCGTGG,1.09 ± 0.025
13,CCGGGCTCTG,1.06 ± 0.013
14,CCGGGGAGTG,1.14 ± 0.25
15,CCGGGGCCTG,1.05 ± 0.095
16,CCGGGGGACC,1.04 ± 0.021
17,CCGGGGGCGA,2.64 ± 1.4
18,CCGGGGGCTG,1.04 ± 0.068
19,CCGGGGGGGA,1.13 ± 0.23
20,CCGGGGGGGC,1.32 ± 0.66
21,CCGGGGGTTC,1.05 ± 0.062
22,CCGGGGGTTG,1.04 ± 0.057
23,CCGGGGTCGA,1.57 ± 0.77
